Results on 2 molecules are retold here after patent US20230405070A1, “PLECTRANTHUS AMBOINICUS EXTRACT FOR USE IN INHIBITING IMMUNE RESPONSES” (Oneness Biotech Co., Ltd., priority 2022, published 2023).

This experiment relates to M1 macrophages. Nature of the experiment: Recombinant GCSF / CXCL3 co-administered with M1-polarizing cytokines. It is filed as cell-based, human. As to the method:
For detection of M1 and M2 macrophage markers, cultured cells were suspended then blocked by 20 μL/10^4 of FcR Blocking Reagent (Miltenyi Biotec, Cologne, Germany). Antibodies listed in Table 1 and isotype signal for normalization were listed in Table 3 were used at 5 μL per 10^5 cells.
Cell lysates for immunoblotting were prepared using an M-PER mammalian protein extraction kit containing protease and phosphatase inhibitor cocktail (Thermo-Fisher Scientific). Immunoblotting using the indicated antibodies (listed in Table 1) was performed as described previously (Lu et al., J Immunother Cancer, 2020).
Next, experiments were performed to analyze whether the genes altered by ON101 treatment in diabetic wounds could be produced by ADPCs upon ON101 treatment and focused on candidate genes detected in wound tissues in ON101-treated db/db mice (FIGS. 4E-4F). […] To test whether GCSF and CXCL3 might be involved in the marker switch between M1 and M2 macrophages, recombinant GCSF and CXCL3 proteins, with or without their neutralizing antibodies, were co-administrated with M1-polarizing cytokines. […] Both GCSF- and CXCL3-mediated inductions of M2a/c markers were abolished by the corresponding neutralizing antibodies (FIGS. 8G-8H). In addition, both GCSF and CXCL3 treatments activated Stat3 signaling pathways, whereas GCSF activated Akt phosphorylation, which was again abolished by their corresponding antibodies (FIG. 8I).

The mark [1] stands for this setting: recombinant protein with M1-polarizing cytokines, 48 h.

On to “CXCL3: recombinant CXCL3 protein co-administrated with M1-polarizing cytokines”, for which, under “immunoblot”, the Stat3 signaling result is recorded as “activated”. Under setting [1], the CD163 expression result is given as “only induced CD163 expression”.

B1: GCSF: recombinant GCSF protein co-administrated with M1-polarizing cytokines (protein, UniProt P09919 31-207, looked up)
Granulocyte …: TPLGPASSLPQSFLLKCLEQVRKIQGDGAALQEKLVSECATYKLCHPEELVLLGHSLGIPWAPLSSCPSQALQLAGCLSQLHSGLFLYQGLLQALEGISPELGPTLDTLQLDVADFATTIWQQMEELGMAPALQPTQGAMPAFASAFQRRAGGVLVASHLQSFLEVSYRVLRHLAQP
Take B1: under “immunoblot”, the Akt phosphorylation entry is given as “activated” and the Stat3 signaling entry is “activated”. Besides, under setting [1], the CD163 expression result is reported as “concentration-dependent increase” and the CD206 expression entry is “concentration-dependent increase”.
